Laboratory results: patent US20170015742A1 (published 2017)
Where a chain is given by its changes, count along the chain named.

T1: recombinant cynomolgus PDGF-BB (cynomolgus monkey, UniProt P01127 82-190 (human entry), limits assumed)
T1 chain: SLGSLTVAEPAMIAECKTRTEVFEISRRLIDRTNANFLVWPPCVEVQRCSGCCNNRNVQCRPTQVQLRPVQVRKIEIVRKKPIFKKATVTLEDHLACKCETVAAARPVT

B1: CODV015 cross-over DVD-Ig (PR-1571827) (bispecific antibody, human IgG1, kappa, L234A L235A)
heavy: EVQLVQSGSELKKPGASVKVSCKASGYTFTNYGMYWVRQAPGQGLEWMGWINTETGKPTYADDFKGRFVFSLDTSVSTAYLQISSLKAEDTAVYYCARTNYYYRSYIFYFDYWGQGTMVTVSSGGGGSGGGEFVLTQSPGTLSLSPGERATLSCERSSGDIGDSYVSWYQQKPGQAPRLVIYADDQRPSGIPDRFSGSGSGTDFTLTISRLEPEDFAVYYCQSYDINIDIVFGGGTKVEIKGGGSGASTKGPSVFPLAPSSKSTSGGTAALGCLVKDYFPEPVTVSWNSGALTSGVHTFPAVLQSSGLYSLSSVVTVPSSSLGTQTYICNVNHKPSNTKVDKKVEPKSCDKTHTCPPCPAPEAAGGPSVFLFPPKPKDTLMISRTPEVTCVVVDVSHEDPEVKFNWYVDGVEVHNAKTKPREEQYNSTYRVVSVLTVLHQDWLNGKEYKCKVSNKALPAPIEKTISKAKGQPREPQVYTLPPSREEMTKNQVSLTCLVKGFYPSDIAVEWESNGQPENNYKTTPPVLDSDGSFFLYSKLTVDKSRWQQGNVFSCSVMHEALHNAYTQKSLSLSPGK
light: EVTLRESGPALVKPTQTLTLTCTFSGFSLSTYGMGVGWIRQPPGKALEWLANIWWDDDKYYNPSLKNRLTISKDTSKNQVVLTMTNMDPVDTATYYCARIESIGTTYSFDYWGQGTMVTVSSGGGGSGGGDTVLTQSPATLSLSPGERATLSCRASESVSTHMHWYQQKPGQAPRLLIYGASNLESGVPARFSGSGSGTDFTLTISSLEPEDFAVYFCQQSWNDPFTFGQGTKLEIKGGSRTVAAPSVFIFPPSDEQLKSGTASVVCLLNNFYPREAKVQWKVDNALQSGNSQESVTEQDSKDSTYSLSSTLTLSKADYEKHKVYACEVTHQGLSSPVTKSFNRGEC
B2: CODV016 cross-over DVD-Ig (PR-1571828) (bispecific antibody, human IgG1, kappa, L234A L235A)
heavy: B1 heavy
light: EVTLRESGPALVKPTQTLTLTCTFSGFSLSTYGMGVGWIRQPPGKALEWLANIWWDDDKYYNPSLKNRLTISKDTSKNQVVLTMTNMDPVDTATYYCARIESIGTTYSFDYWGQGTMVTVSSGGGGSDTVLTQSPATLSLSPGERATLSCRASESVSTHMHWYQQKPGQAPRLLIYGASNLESGVPARFSGSGSGTDFTLTISSLEPEDFAVYFCQQSWNDPFTFGQGTKLEIKGGSRTVAAPSVFIFPPSDEQLKSGTASVVCLLNNFYPREAKVQWKVDNALQSGNSQESVTEQDSKDSTYSLSSTLTLSKADYEKHKVYACEVTHQGLSSPVTKSFNRGEC
B3: 9E8.4-GS-4G8.3 DVD-Ig (PR-1563988) (bispecific antibody, human IgG1, kappa, L234A L235A)
heavy: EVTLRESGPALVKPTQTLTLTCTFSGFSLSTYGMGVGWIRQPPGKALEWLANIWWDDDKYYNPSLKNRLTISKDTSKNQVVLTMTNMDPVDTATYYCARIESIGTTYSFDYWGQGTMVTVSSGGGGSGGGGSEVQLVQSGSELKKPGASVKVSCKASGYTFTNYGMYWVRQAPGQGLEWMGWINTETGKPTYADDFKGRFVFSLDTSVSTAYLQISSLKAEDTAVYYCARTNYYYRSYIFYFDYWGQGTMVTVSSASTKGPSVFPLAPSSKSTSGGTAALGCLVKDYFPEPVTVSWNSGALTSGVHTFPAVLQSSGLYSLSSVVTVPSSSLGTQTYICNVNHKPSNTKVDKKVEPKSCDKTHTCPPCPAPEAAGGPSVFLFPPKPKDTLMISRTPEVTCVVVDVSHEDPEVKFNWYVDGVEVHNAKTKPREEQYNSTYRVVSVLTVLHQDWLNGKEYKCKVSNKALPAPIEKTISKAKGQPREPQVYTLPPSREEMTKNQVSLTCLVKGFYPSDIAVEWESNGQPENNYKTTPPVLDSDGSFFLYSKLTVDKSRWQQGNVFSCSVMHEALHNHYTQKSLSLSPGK
light: EFVLTQSPGTLSLSPGERATLSCERSSGDIGDSYVSWYQQKPGQAPRLVIYADDQRPSGIPDRFSGSGSGTDFTLTISRLEPEDFAVYYCQSYDINIDIVFGGGTKVEIKGGGSGGGGSGDTVLTQSPATLSLSPGERATLSCRASESVSTHMHWYQQKPGQAPRLLIYGASNLESGVPARFSGSGSGTDFTLTISSLEPEDFAVYFCQQSWNDPFTFGQGTKLEIKRTVAAPSVFIFPPSDEQLKSGTASVVCLLNNFYPREAKVQWKVDNALQSGNSQESVTEQDSKDSTYSLSSTLTLSKADYEKHKVYACEVTHQGLSSPVTKSFNRGEC
B4: 4G8.3-LS-9E8.4 (g) anti-VEGF-A/anti-PDGF-BB DVD-Ig (PR-1572106) (bispecific antibody, human IgG1, kappa, L234A L235A)
heavy: EVQLVQSGSELKKPGASVKVSCKASGYTFTNYGMYWVRQAPGQGLEWMGWINTETGKPTYADDFKGRFVFSLDTSVSTAYLQISSLKAEDTAVYYCARTNYYYRSYIFYFDYWGQGTMVTVSSASTKGPSVFPLAPEVTLRESGPALVKPTQTLTLTCTFSGFSLSTYGMGVGWIRQPPGKALEWLANIWWDDDKYYNPSLKNRLTISKDTSKNQVVLTMTNMDPVDTATYYCARIESIGTTYSFDYWGQGTMVTVSSASTKGPSVFPLAPSSKSTSGGTAALGCLVKDYFPEPVTVSWNSGALTSGVHTFPAVLQSSGLYSLSSVVTVPSSSLGTQTYICNVNHKPSNTKVDKKVEPKSCDKTHTCPPCPAPEAAGGPSVFLFPPKPKDTLMISRTPEVTCVVVDVSHEDPEVKFNWYVDGVEVHNAKTKPREEQYNSTYRVVSVLTVLHQDWLNGKEYKCKVSNKALPAPIEKTISKAKGQPREPQVYTLPPSREEMTKNQVSLTCLVKGFYPSDIAVEWESNGQPENNYKTTPPVLDSDGSFFLYSKLTVDKSRWQQGNVFSCSVMHEALHNAYTQKSLSLSPGK
light: DTVLTQSPATLSLSPGERATLSCRASESVSTHMHWYQQKPGQAPRLLIYGASNLESGVPARFSGSGSGTDFTLTISSLEPEDFAVYFCQQSWNDPFTFGQGTKLEIKRTVAAPEFVLTQSPGTLSLSPGERATLSCERSSGDIGDSYVSWYQQKPGQAPRLVIYADDQRPSGIPDRFSGSGSGTDFTLTISRLEPEDFAVYYCQSYDINIDIVFGGGTKVEIKRTVAAPSVFIFPPSDEQLKSGTASVVCLLNNFYPREAKVQWKVDNALQSGNSQESVTEQDSKDSTYSLSSTLTLSKADYEKHKVYACEVTHQGLSSPVTKSFNRGEC
B5: BED-4G10-C8 (antibody, V domains shown)
VH: QVQLQQSGTELVKPGSSVKISCKASGYTFTSNYMHWIRQQPGNGLEWIGWIYPGDGDTNYNHNFNGKATLTADKSSSTAYMQLSSLTSEDFAVYFCASSTRAIPGWFTYWGQGTLVTVSS
VL: DTVLTQSPALAVSPGERVSISCWASESVSTLMHWYQQKLGQQPKLLIYGASNLESGVPARFRGSGSGTDFTLTIDPVEADDTATYFCQQSWSDPYTFGAGTKLELK
notes: Rat hybridoma anti-human VEGF-A monoclonal antibody, isotype IgG2b/kappa
B6: BDB-4G8-D4 (antibody, V domains shown)
VH: QIQLVQSGPELKKPGESVKISCKASGYTFTNYGMYWVKQAPGQGLQYMGWINTETGKPTYADDFKGRFVFFLETSASTAYLQINNLKNEDMATYFCARTNYYYRSYIFYFDYWGQGTMVTVSS
VL: B5 VL with W23R, L31H, L39P, R62S, S92N, Y95F, G100V
notes: as for B5
B7: BEW-9E7-B4 (antibody, V domains shown)
VH: QIQLVQSGPELKKPGESVKISCKASGYTFTNYGMYWVKQAPGQGLQYMGWIDTETGKPTYADDFKGRFVFFLETSASTAYLQINNLRNEDMATYFCARWGYTSDYYYGWFPDWGQGTLVTVST
VL: DTVLTQSPALAVSPGERVSISCRASEGVNSYMHWYQQNPGQQPKLLIYKASNLASGVPARFSGSGSGTDFTLNIHPVEADDTATYFCQQNWNVPLTFGSGTKLEIK
notes: as for B5
B8: BEW-9D2-E8 (antibody, V domains shown)
VH: QIQLVQSGPELKKPGESVKISCKASGYTFTNYGMYWVKLAPGQGLQYLGWINTETGKPTYADDFKGRFVFFLETSASTAYLQINNLRNEDMATYFCARPSDYYDGFWFAYWGQGTLVTVSS
VL: B7 VL with A11T, G27W, N73T, I74L, H75D, N90S, V93D
notes: Rat hybridoma anti-human VEGF-A monoclonal antibody, isotype IgG2a/kappa
B9: BEW-9C2-D6 (antibody, V domains shown)
VH: QIQLVQSGPELKKPGESVKVSCKASGYTFTNYGIHWVKQAPGQGLQYVGWINTETGRPTYADDFKGRFVFFLETSASTAYLQINNLKNEDMATYFCARPLYYGYAHYFDYWGQGVMVTVSS
VL: DIQMTQSPASLSASLEEIVTITCQASQDIGNWLAWYQQKPGKSPQLLIYGATSLADGVPSRFSGSRSGTQYSLKISRLQVEDIGIYYCQQASSVTYTFGAGTKLELK
notes: as for B5
B10: BEW-3A1-D10-G9 (antibody, V domains shown)
VH: QVQLEQSGAELVKPGTSVKLSCMASGYTSSSNHMNWMKQTTGQGLEWIGIINPGSGGTRYNVKFEGKATLTVDKSSSTAFMQLNSLTPEDSAVYYCARAGFPGPFSYYAMGAWGQGTSVTVSS
VL: DIQMTQSPPVLSASVGDRVTLSCKASQNIHNNLDWYQQKHGEAPKLLIFYTNNLQTGIPSRFSGSGSGTDYTLTISSLQPEDVATYYCYQYNSGYTFGAGTKLELK
notes: as for B5
B11: BEW-1B10-B9-C3 (antibody, V domains shown)
VH: EVQLVESGGGLVQPGRSLKLSCAASGFSFSKYDMAWFRQTPTKGLEWVASITTSGVGTYYRDSVKGRFTVSRDNAKSTLYLQMDSLRSEDTATYYCARGYGAMDAWGQGTSVTVSS
VL: DIQMTQSPASLSASLEEIVTITCKASQDIDDYLSWYQQKPGKSPQLVIYAATRLADGVPSRFSGSGSGTQYSLKISRLQVDDSGIYYCLQSSSTPWTFGGGTNLELK
notes: as for B8

molecular target: recombinant human VEGF165 (human, UniProt P15692 207-395); experiment: cell-based or functional assay
Sequence (P15692 other isoform, or with tags, fused parts or gaps limits assumed): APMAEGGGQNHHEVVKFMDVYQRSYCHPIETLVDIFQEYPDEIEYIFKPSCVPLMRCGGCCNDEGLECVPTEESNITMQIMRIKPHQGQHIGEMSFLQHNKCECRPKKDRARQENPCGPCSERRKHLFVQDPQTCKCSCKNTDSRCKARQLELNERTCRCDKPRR

Question: How did the “HMVEC-d hVEGF165 Potency IC50” value turn out when B1 was run?
Answer: 0.104 nM

Question: Which “HMVEC-d hVEGF165 Potency IC50” value does the source give for B2 here?
Answer: 0.115 nM

Question: Which “HMVEC-d hVEGF165 Potency IC50” value does the source give for B3 here?
Answer: 2.64 nM

molecular target: recombinant human PDGF-BB (human, UniProt P01127 82-190); experiment: cell-based or functional assay

Question: For B1, which “NIH-3T3 hPDGF-BB Potency IC50” value is on record?
Answer: 0.075 nM

Question: For B2, which “NIH-3T3 hPDGF-BB Potency IC50” value is on record?
Answer: 0.096 nM

Question: With B3 as the binder, how does the “NIH-3T3 hPDGF-BB Potency IC50” value read?
Answer: 0.076 nM

Molecular target: T1, recombinant cynomolgus PDGF-BB
Experiment: cell-based or functional assay

Question: B4 was tested. Which “Potency IC50 (nM) cynoPDGF-BB (NIH-3T3 proliferation)” value did it give?
Answer: 0.094 nM

molecular target: recombinant murine PDGF-BB (mouse, UniProt P31240 82-190); experiment: cell-based or functional assay
Sequence (P31240 82-190 limits assumed): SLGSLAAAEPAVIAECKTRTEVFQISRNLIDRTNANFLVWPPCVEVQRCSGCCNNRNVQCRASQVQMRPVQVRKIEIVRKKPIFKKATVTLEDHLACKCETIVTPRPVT

Question: For B4, which “Potency IC50 (nM) mPDGF-BB (NIH-3T3 proliferation)” value is on record?
Answer: 0.14 nM

molecular target: T2, recombinant human VEGF-A 165 (human, UniProt P15692 207-395); experiment: receptor competition ELISA, biotinylated hVEGF165 binding to coated hVEGF-R2-Fc
T2 construct: also called huVEGF-A165; hVEGF165
Experimental: To identify molecules that could block the binding of hVEGF₁₆₅ to the hVEGF-R2 (KDR/Flk-1) receptor, a competition ELISA was performed. […] Plates were then washed four times with wash buffer (TBS, 0.05% Tween-20) and blocked with Superblock blocking buffer (Thermo Scientific, cat#37535). […] The pre-incubated sample/hVEGF₁₆₅ complex was added to the coated plate at 50 μL in duplicate and incubated for 30 minutes at 25° C. with shaking. Following incubation, plates were washed four times with wash buffer. Streptavidin-polyHRP-40 (Fitzgerald cal#65r-s104phrp) was diluted in assay diluent (10% Superblock containing 0.05% surfactamps) and added to plates (50 μL) for 45 minutes at 25° C. with shaking. Plates were washed four times with wash buffer and developed with the addition of Enhanced K-blue TMB substrate (Neogen cat#308177). The reaction was stopped with 2N sulfuric acid (VWR, cat# BDH3500-1) and the absorbance was read at 450 nm-570 nm. A decrease in observed optical density indicates the test molecule is blocking the hVEGF₁₆₅ binding to the hVEGF-R2-Fc. Data was analyzed using Softmax Pro 4.8 software and IC₅₀ values calculated using a sigmoidal dose response (variable slope) fit in GraphPad Prism 5.
Anti-VEGF-A antibodies derived from rat hybridomas were characterized for binding, function and cross-reactivity in a panel of assays. Supernatants were tested for the ability to bind hVEGF₁₆₅ (Example 1.3) and block binding of hVEGF₁₆₅ to hVEGFR2 in a competition ELISA format (Example 1.4).

T2 sequence (P15692 other isoform, or with tags, fused parts or gaps limits assumed): as the sequence (P15692 other isoform, or with tags, fused parts or gaps limits assumed) above

Question: For B5, which IC50 is on record?
Answer: 0.13 nM

Question: With B6 as the binder, how does the IC50 read?
Answer: 0.13 nM

Question: For B7, which IC50 is on record?
Answer: 0.207 nM

Question: For B8, which IC50 is on record?
Answer: 0.127 nM

Question: With B9 as the binder, how does the IC50 read?
Answer: 0.155 nM

Question: B10 was tested. Which IC50 did it give?
Answer: 0.124 nM

Question: Which IC50 does the source give for B11 here?
Answer: 0.326 nM
